Data taken from paper PMC2891831, “Insight into the Mechanisms of Adenovirus Capsid Disassembly from Studies of Defensin Neutralization” (PLoS Pathogens, 2010).

Tested on: Ad5.eGFP
Experiment: Ad5.eGFP infection, eGFP-positive cells by flow cytometry
Format: cell-based, human adenovirus
Conditions: 15 µM defensin, percent eGFP positive cells vs. no defensin, at least three independent experiments
Source text: To gain further insight into the defensin-HAdV interaction, we assessed the requirement for two conserved structural elements on the anti-AdV activity of HD5. All defensins have three disulfide bonds (Figure 3A). […] The antibacterial properties of defensins, which are dependent upon protein-lipid interactions, are not uniformly conformation dependent [27]–[29]. […] In contrast, defensin-related chemokine activity, which relies on protein-protein interactions, is dependent on defensin conformation. We hypothesized that the defensin-capsid interaction for sensitive serotypes would likely be dependent upon defensin conformation, as this would be more typical for protein-protein interactions. […]
Figure 3 HD5 antiviral activity is structure dependent. […] C) Binding of Alexa Fluor 488-labeled HAdV-5 to cells was assessed after incubation with or without 20 µM HD5 or HD5-Abu and in competition with 100 nM 5FK or 16 FK. Data are the mean fold increase in geometric mean fluorescence compared to cells alone and are of at least 10,000 cells from each of three independent experiments ± SD.
To test the activity of HD5 derivates, Ad5.eGFP was incubated with 15 µM of HD5, HD5-Abu, or HD5-E14Q. Infectivity was assessed by enumerating eGFP-positive cells by flow cytometry as described.

B1: HD5-E14Q: HD5 containing a substitution of glutamine for glutamic acid 14, to disrupt the conserved salt bridge (peptide, UniProt Q01523 20-94, looked up, variant E14Q)
Defensin alpha 5: ESLQERADEATTQKQSGEDNQDLAISFAGNGLSALRTSGSQARATCYCRTGRCATRQSLSGVCEISGRLYRLCCR
modifications: Defensin-5
notes: HD5 containing a substitution of glutamine for glutamic acid 14, to disrupt the conserved salt bridge
- antiviral activity against Ad5.eGFP: no effect on antiviral activity
